Earlier results on one molecule are cited in patent publication US20110118324A1, “METHOD AND COMPOSITION FOR TREATING MULTIPLE SCLEROSIS (VARIANTS)” (priority 2009, published 2011).

The test system of the series is multiple sclerosis patients.

B1: Betaferon: a recombinant human Beta-1b interferon (protein, UniProt P01574 22-187, looked up, variant C17S)
Interferon beta: MSYNLLGFLQRSSNFQSQKLLWQLNGRLEYCLKDRMNFDIPEEIKQLQQFQKEDAALTIYEMLQNIFAIFRQDSSSTGWNETIVENLLANVYHQINHLKTVLEEKLEKEDFTRGKLMSSLHLKRYYGRILHYLKAKEYSHCAWTIVRVEILRNFYFINRLTGYLRN
modifications: lacks N-terminal Met, non-glycosylated
notes: a recombinant human Beta-1b interferon
As for B1, the “reduction of the frequency of acute conditions occurring in the disease” value was 30%, the “reduction of the severity of acute conditions” value is listed as 30% and the side effects result was “intensified depressive symptomatology”.
